These results are taken from PMC10397247.

Holding throughout (assay): two-hybrid library CCmax;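 further: natural log of median RNA to DNA barcode read ratio; higher means stronger binding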
The target in one test is T1, 4H662-AA.
T1 chain: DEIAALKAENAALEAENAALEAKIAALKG
Conditions: mean of both orientations.

The target of the next test is T2, 4H481-AA.
T2 chain: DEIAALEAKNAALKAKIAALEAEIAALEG
As to conditions: mean of both orientations.

Another test concerns the target T3, 4H2536-AA.
T3 chain: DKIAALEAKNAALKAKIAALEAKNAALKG

The target of another test is T4, 4H55-AA.
T4 chain: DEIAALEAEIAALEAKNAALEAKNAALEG
Conditions: mean of both orientations.

Another test deals with T5, 4H327-AA.
T5 chain: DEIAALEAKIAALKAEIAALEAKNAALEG
As to conditions: mean of both orientations.

In a further test the target is T6, 4H2614-AA.
T6 chain: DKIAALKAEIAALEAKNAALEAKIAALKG
As to conditions: mean of both orientations.

The target of the next test is T7, 4H2726-AA.
T7 chain: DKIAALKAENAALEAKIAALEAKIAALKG
As to conditions: mean of both orientations.

Another test concerns the target T8, 4H2608-AA.
T8 chain: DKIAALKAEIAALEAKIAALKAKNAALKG
Conditions: mean of both orientations.

For a further test, the target named is T9, 4H4033-AA.
T9 chain: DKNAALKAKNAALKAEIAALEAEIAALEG
As to conditions: mean of both orientations.

A further test deals with T10, 4H3625-AA.
T10 chain: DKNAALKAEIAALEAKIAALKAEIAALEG
Conditions: mean of both orientations.

The next test addresses T11, 4H369-AA.
T11 chain: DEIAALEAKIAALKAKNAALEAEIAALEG

The target in a further test is T12, 4H2935-AA.
T12 chain: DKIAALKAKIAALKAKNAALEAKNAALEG
Conditions: mean of both orientations.

The next test has as its target T13, 4H3664-AA.
T13 chain: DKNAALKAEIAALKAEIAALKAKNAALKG
Conditions: mean of both orientations.

Another test addresses T14, 4H3605-AA.
T14 chain: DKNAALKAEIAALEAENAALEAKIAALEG
As to conditions: mean of both orientations.

The next test has as its target T15, 4H3922-AA.
T15 chain: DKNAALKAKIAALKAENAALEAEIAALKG
Conditions: mean of both orientations.

Another test concerns the target T16, O3-AA.
T16 chain: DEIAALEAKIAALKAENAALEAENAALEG

Another test concerns the target T17, O6-AA.
T17 chain: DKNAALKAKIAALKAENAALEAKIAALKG
As to conditions: mean of both orientations.

The target of another test is T18, O4-AA.
T18 chain: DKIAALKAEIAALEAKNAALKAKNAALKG
Conditions: mean of both orientations.

The next test concerns the target T19, O7-AA.
T19 chain: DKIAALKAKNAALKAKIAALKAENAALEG
As to conditions: mean of both orientations.

In another test the target is T20, P10-AA.
T20 chain: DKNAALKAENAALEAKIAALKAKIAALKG
As to conditions: mean of both orientations.

The target in the next test is T21, O8-AA.
T21 chain: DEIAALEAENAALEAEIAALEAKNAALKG
As to conditions: mean of both orientations.

A further test has as its target T22, O5-AA.
T22 chain: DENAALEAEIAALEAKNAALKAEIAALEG
Conditions: mean of both orientations.

For a further test, the target named is T23, P9-AA.
T23 chain: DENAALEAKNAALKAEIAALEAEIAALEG
Conditions: mean of both orientations.

The next test has as its target T24, 4H_APH.
T24 chain: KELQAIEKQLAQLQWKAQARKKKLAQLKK
Conditions: mean of both orientations.

In another test the target is T25, O14-AA.
T25 chain: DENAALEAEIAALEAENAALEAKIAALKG
As to conditions: mean of both orientations.

A further test addresses T26, 4H451-AA.
T26 chain: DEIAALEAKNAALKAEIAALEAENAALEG
Conditions: mean of both orientations.

The target in a further test is T27, O13-AA.
T27 chain: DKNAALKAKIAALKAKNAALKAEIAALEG
Conditions: mean of both orientations.

A further test deals with T28, 4H_BCR.
T28 chain: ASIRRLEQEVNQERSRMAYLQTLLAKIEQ
Conditions: mean of both orientations.

The target of a further test is T29, 4H43-AA.
T29 chain: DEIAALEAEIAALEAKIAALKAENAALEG
As to conditions: mean of both orientations.

The target in another test is T30, 4H4038-AA.
T30 chain: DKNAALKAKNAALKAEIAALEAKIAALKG
Conditions: mean of both orientations.

The target of a further test is T31, 4H384-AA.
T31 chain: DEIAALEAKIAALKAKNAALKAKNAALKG
As to conditions: mean of both orientations.

The target of another test is T32, 4H3049-AA.
T32 chain: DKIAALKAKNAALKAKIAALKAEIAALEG
Conditions: mean of both orientations.

The target in the next test is T33, 4H337-AA.
T33 chain: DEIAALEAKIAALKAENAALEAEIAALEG
As to conditions: mean of both orientations.

Another test deals with T34, 4H510-AA.
T34 chain: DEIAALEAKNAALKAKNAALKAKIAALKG
As to conditions: mean of both orientations.

Another test addresses 4H_GCN4.
Another test deals with T35, 4H2888-AA.
T35 chain: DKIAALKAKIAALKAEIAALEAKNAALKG

A further test deals with T36, 4H3587-AA.
T36 chain: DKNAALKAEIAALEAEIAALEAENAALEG
Conditions: mean of both orientations.

Another test concerns the target T37, 4H3905-AA.
T37 chain: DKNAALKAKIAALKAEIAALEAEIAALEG
Conditions: mean of both orientations.

For the next test, the target named is GCN2_T. Conditions: mean of both orientations.
The next test addresses T38, O11-AA.
T38 chain: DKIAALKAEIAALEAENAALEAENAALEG
As to conditions: mean of both orientations.

A further test concerns the target T39, 4H3590-AA.
T39 chain: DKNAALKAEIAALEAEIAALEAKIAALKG
Conditions: mean of both orientations.

Chain of 4H_GCN4 (chain, as listed by the source): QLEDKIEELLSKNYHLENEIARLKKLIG

B1: 4H2536-AA (peptide)
chain: DKIAALEAKNAALKAKIAALEAKNAALKG
Take B1: the interaction score in the test with 4H662-AA is -1.33; in the test with 4H481-AA it was -0.0556; with 4H2536-AA it was -0.663; with 4H55-AA it was -1.17; in the test with 4H327-AA, -1.02; in the test with 4H2614-AA it was -1.61. The interaction score was 1.39 in the test with 4H2726-AA; -0.457 in the test with 4H2608-AA; -1.47 in the test with 4H4033-AA; -1.16 with 4H3625-AA; 0.0403 with 4H369-AA; -1.66 with 4H2935-AA. In addition, the interaction score with 4H3664-AA is -1.51; with 4H3605-AA, 1.29; with 4H3922-AA, 0.635; with O3-AA, -1.65.

B2: O3-AA (peptide)
chain: DEIAALEAKIAALKAENAALEAENAALEG
As for B2, the interaction score was -0.902 in the test with O6-AA; 1.99 in the test with O4-AA; -1.4 with O7-AA; -1.06 in the test with P10-AA; -1.37 in the test with O8-AA; -1.22 in the test with O5-AA. Also, the results for the interaction score in the test with P9-AA and with O3-AA were -0.88 and -0.811, respectively.

B3: 4H2888-AA (peptide)
chain: DKIAALKAKIAALKAEIAALEAKNAALKG
B3: the interaction score is -2.17 with 4H_APH; 1.71 with O14-AA; -0.857 with 4H451-AA; -0.966 with O13-AA; -2.06 with 4H_BCR; 1.89 with 4H43-AA. The interaction score is 0.103 with 4H4038-AA; -0.941 in the test with 4H384-AA; -0.982 with 4H3049-AA; 1.63 with 4H3625-AA; 1.21 with 4H337-AA; -1.56 with 4H510-AA. For the same molecule, the interaction score is -1.53 with 4H_GCN4; 1.12 in the test with 4H2888-AA; 1.25 with 4H3587-AA; 1.91 with 4H3905-AA; -1.24 with GCN2_T; 0.766 in the test with O11-AA. Also, in the test with 4H3590-AA, the interaction score came to 2.23.
